In patent US20040077031:

Legend:
[1] = target: T1, MGKVKVGVN peptide
T1 chain: MGKVKVGVN

[2] = target: T2, MGNLKSVA (eNOS) octameric peptide
T2 chain: MGNLKSVA

[3] = target: T3, MAS (methionine-alanine-serine) trimeric peptide
T3 chain: MAS

[4] = target: T4, MGKVK peptide
T4 chain: MGKVK

[5] = target: T5, MGKVKV peptide
T5 chain: MGKVKV

[6] = target: T6, MGKVKVGVNG peptide
T6 chain: MGKVKVGVNG

[7] = target: T7, MGK peptide
T7 chain: MGK

[8] = target: T8, MGKVKVG (GADPH) peptide
T8 chain: MGKVKVG

[9] = target: T9, MGKVKVGVNGF peptide
T9 chain: MGKVKVGVNGF

[10] = target: T10, MGSSKSKP (Src p60) octameric peptide
T10 chain: MGSSKSKP

[11] = target: T11, MGKV peptide
T11 chain: MGKV

[12] = target: T12, MGNAAAAK (PKC a) octameric peptide
T12 chain: MGNAAAAK

[13] = target: T13, MGAQFSKT (MARCKS protein) octameric peptide
T13 chain: MGAQFSKT

B1: recombinant human methionine aminopeptidase type 2 (MetAP2) with N-terminal histidine tag (protein)
chain: MAGVEEVAASGSHLNGDLDPDDREEGAASTAEEAAKKKRRKKKKSKGPSAAGEQEPDKESGASVDEVARQLERSALEDKERDEDDEDGDGDGDGATGKKKKKKKKKRGPKVQTDPPSVPICDLYPNGVFPKGQECEYPPTQDGRTAAWRTTSEEKKALDQASEEIWNDFREAAEAHRQVRKYVMSWIKPGMTMIEICEKLEDCSRKLIKENGLNAGLAFPTGCSLNNCAAHYTPNAGDTTVLQYDDICKIDFGTHISGRIIDCAFTVTFNPKYDTLLKAVKDATNTGIKCAGIDVRLCDVGEAIQEVMESYEVEIDGKTYQVKPIRNLNGHSIGQYRIHAGKTVPIVKGGEATRMEEGEVYAIETFGSTGKGVVHDDMECSHYMKNFDVGHVPIRLPRTKHLLNVINENFGTLAFCRRWLDRLGESKYLMALKNLCDLGIVDPYPPLCDIKGSYTAQFEHTILLRPTCKEVVSRGDDY
[1]
  Km: 205 µM
  kcat: 10.2 s⁻¹
  kcat/Km: 3
[2]
  Km: 208 µM
  kcat: 4.87 s⁻¹
  kcat/Km: 1.4
[3]
  Km: 212 µM
  baseline activity (turnover, no added metal): 0.19 µM/min turnover of MAS at 60 nM MetAP2
  enzymatic cleavage of peptide substrate: showed enzymatic activity in cleaving a tripeptide MAS substrate
  kcat: 2.54 s⁻¹
  kcat/Km: 0.72
[4]
  Km: 188 µM
  kcat: 10.4 s⁻¹
  kcat/Km: 3.3
[5]
  Km: 149 µM
  kcat: 8.53 s⁻¹
  kcat/Km: 3.4
[6]
  Km: 164 µM
  kcat: 10.2 s⁻¹
  kcat/Km: 3.7
[7]
  Km: 758 µM
  kcat: 3.32 s⁻¹
  kcat/Km: 0.3
[8]
  Km: 215 µM
  kcat: 9.56 s⁻¹
  kcat/Km: 2.7
[9]
  Km: 131 µM
  kcat: 9.43 s⁻¹
  kcat/Km: 4.3
[10]
  Km: 233 µM
  kcat: 3.94 s⁻¹
  kcat/Km: 1
[11]
  Km: 624 µM
  kcat: 6.7 s⁻¹
  kcat/Km: 0.6
[12]
  Km: 260 µM
  kcat: 3.78 s⁻¹
  kcat/Km: 0.9
[13]
  Km: 224 µM
  baseline activity (turnover, no added metal): 0.12 µM/min turnover of MGAQFSKT at 30 nM MetAP2
  kcat: 4.87 s⁻¹
  kcat/Km: 1.3
